The data set concerns Rb. The data set is described as follows: Western immunoblot of Rb, HCT-116 (wt-p53). The data set is classed as cell-based, human. On the procedure: The expression of miR-192 on the expression of E2F3 and Rb in HCT-116 (wt-p53) cells was also analyzed. In these experiments, HVT-116 (wt-p53) cells, as described above (see Example 3) were transfected with non-specific miR (FIG. 7, lane 2), DHFR siRNA (FIG. 7, lane 3) or miR-192 (FIG. 7, lane 4) according to the procedure described above (see Examples 1 and 2). One HCT-116 (wt-p53) sample was not transfected, and used as a negative control (FIG. 7, lane 1). Western immunoblot analysis was performed according to the procedure described above (see Example 5), except that rabbit anti-E2F-3 polyclonal antibody (1:1000, C-18) (Santa Cruz Biotechnology) was used.
For orientation: A western blot detects proteins with antibodies after separation by electrophoresis.

B1: miR-192: microRNA miR-192 (SEQ ID NO:1), transfected into cells as miR-192 precursor (Ambion) (nucleic acid)
chain: GCCGAGACCGAGUGCACAGGGCUCUGACCUAUGAAUUGACAGCCAGUGCUCUCGUCUCCCCUCUGGCUGCCAAUUCCAUAGGUCACAGGUAUGUUCGCCUCAAUGCCAGC
modifications: delivered as precursor, further chemistry not given here
Turning to B1, the “expression of Rb” value is on record as “decreased expression”.

Source of the values: patent US8927207B2, “miRNAs as therapeutic targets in cancer” (Research Foundation of State University of New York, priority 2008, dated 2015).
